# Experimental data as given in publication PMC7515705.
# T1: YBEY-3 × FLAG (human), P58557
# T1 chain: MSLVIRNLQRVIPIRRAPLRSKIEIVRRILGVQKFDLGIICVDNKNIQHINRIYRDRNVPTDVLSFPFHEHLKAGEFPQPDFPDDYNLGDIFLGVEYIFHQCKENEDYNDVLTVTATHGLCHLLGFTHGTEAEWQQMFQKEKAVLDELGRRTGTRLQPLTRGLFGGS
# Biological target: T1, YBEY-3 × FLAG (human), P58557
# Assay: affinity purification with mass spectrometry; α-FLAG antibody and protein A-sepharose on mitochondrial lysates (0.5% n-dodecyl-β-D-maltoside, 20 mM Tris-HCl pH 7.5, 150 mM KCl, 4°C) of SAL001 cells expressing YBEY-3 × FLAG; parental Flp-In T-REx 293 as control; LC-MS/MS, spectral counts; YBEY:p32 stoichiometry from spectral abundance factors
# Details: remark: other sources report otherwise
binder,measurement,value
"p32/C1QBP, endogenous, Q07021 74-282 (natural protein) LHTDGDKAFVDFLSDEIKEERKIQKHKTLPKMSGGWELELNGTEAKLVRKVAGEKITVTFNINNSIPPTFDGEEEPSQGQKVEEQEPELTSTPNFVVEVIKNDDGKKALVLDCHYPEDEVGQEDEAESDIFSIREVSFQSTGESEWKDTNYTLNTDSLDWALYDHLMDFLADRGVDNTFADELVELSTALEHQEYITFLEDLKSFVKSQ",stoichiometry N,1
